Measured values from patent US20220305003A1, “METHODS OF TREATING CANCER WITH AN INHIBITOR OF ZNF827” (CHILDREN'S MEDICAL RESEARCH INSTITUTE, priority 2019, published 2022).

Columns and labels:
[1] = target: T1, replication protein A (RPA), heterotrimeric complex (human, UniProt P27694 1-616; P15927 1-270; P35244 2-121); assay: co-IP of Myc-DDK-tagged ZNF827 mutants, Western blot for RPA
T1 construct: Endogenous RPA of human cell lines, detected with an RPA2 (RPA32) antibody; also called detected through RPA32; RPA2
Experimental: (§1) Resuspended cells were lysed by incubation with rotation for 1 hour at 4° C. For Benzonase treatment to remove DNA, samples were incubated in the lysis buffer described above supplemented with 25 U Benzonase nuclease (Novagen, Merck Millipore) for 2 hours at 4° C. Lysates were subjected to centrifugation at 13,000 rpm for 40 minutes at 4° C. to remove cell debris. The supernatant was then transferred to a fresh cold low bind 1.5 mL tube for subsequent immunoprecipitation. For immunoprecipitation, protein lysates were incubated with antibody for the protein of interest (10 μg per mL lysate) or IgG control (Refer to Tables 4 and 5 for the list of antibodies used in this study), preincubated with Dynabeads Protein G, as per manufacturer's instructions (Life Technologies), with rotation overnight at 4° C. The following day, beads were washed three times in cold lysis buffer and separated on a magnetic rack. Proteins were then eluted from the beads by resuspension in 50 mM Glycine pH 2.8 and sodium dodecyl sulphate (SDS) sample buffer (0.2 M Tris-Cl, pH 6.8, 28% glycerol, 13.5% β-mercaptoethanol, 6% SDS, 6 mM EGTA, and 0.07% bromophenol blue) for 10 minutes at 70° C. and subjected to Western blot analysis, as described below, to detect various protein interactions. […]

[2] = target: T2, topoisomerase 2-binding protein 1 (TOPBP1) (human, UniProt Q92547 1-1522); assay: co-IP with Myc antibody, Western blot for TOPBP1
T2 construct: TOPBP1 in lysates of human cells, co-immunoprecipitated with Myc antibody
Experimental: as §1

T2 sequence (Q92547 whole entry): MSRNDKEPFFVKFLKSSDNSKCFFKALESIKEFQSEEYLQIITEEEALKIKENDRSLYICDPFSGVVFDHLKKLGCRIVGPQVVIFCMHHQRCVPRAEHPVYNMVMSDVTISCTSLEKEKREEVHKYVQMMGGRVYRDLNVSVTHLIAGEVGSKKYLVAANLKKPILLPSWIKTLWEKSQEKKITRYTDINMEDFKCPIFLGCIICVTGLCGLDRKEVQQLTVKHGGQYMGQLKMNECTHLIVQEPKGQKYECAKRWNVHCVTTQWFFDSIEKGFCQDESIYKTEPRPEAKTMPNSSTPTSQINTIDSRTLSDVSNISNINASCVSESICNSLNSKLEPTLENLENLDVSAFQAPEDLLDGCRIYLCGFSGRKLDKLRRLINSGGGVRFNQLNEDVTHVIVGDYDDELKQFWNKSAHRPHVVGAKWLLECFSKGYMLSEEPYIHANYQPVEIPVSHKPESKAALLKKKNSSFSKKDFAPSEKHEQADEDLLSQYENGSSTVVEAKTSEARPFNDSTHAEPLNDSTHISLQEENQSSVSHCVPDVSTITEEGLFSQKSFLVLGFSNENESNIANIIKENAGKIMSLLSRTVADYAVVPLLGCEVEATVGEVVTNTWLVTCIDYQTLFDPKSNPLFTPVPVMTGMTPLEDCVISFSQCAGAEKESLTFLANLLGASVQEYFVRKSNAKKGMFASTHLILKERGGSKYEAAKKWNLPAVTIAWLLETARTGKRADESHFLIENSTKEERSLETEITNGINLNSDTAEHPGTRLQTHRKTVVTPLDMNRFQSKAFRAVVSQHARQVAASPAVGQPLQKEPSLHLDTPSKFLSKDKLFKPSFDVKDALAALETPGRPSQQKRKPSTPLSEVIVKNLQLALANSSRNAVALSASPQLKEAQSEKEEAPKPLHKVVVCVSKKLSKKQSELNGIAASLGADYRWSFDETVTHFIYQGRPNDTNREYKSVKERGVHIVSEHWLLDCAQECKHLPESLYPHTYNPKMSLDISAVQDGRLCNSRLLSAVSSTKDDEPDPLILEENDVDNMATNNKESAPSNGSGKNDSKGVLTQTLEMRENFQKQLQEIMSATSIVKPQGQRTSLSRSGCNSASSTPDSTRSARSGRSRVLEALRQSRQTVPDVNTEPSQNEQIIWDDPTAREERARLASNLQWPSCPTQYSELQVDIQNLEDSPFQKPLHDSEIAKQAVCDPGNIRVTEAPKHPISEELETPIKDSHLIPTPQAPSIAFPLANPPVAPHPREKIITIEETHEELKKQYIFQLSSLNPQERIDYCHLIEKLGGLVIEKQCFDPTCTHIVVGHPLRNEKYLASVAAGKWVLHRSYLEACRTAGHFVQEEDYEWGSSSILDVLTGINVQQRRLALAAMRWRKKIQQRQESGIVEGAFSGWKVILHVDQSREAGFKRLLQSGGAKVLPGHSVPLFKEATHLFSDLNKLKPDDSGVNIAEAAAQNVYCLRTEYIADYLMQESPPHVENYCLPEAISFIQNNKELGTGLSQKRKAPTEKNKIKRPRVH
T1 sequence (P27694 whole entry, chain 1 of 3): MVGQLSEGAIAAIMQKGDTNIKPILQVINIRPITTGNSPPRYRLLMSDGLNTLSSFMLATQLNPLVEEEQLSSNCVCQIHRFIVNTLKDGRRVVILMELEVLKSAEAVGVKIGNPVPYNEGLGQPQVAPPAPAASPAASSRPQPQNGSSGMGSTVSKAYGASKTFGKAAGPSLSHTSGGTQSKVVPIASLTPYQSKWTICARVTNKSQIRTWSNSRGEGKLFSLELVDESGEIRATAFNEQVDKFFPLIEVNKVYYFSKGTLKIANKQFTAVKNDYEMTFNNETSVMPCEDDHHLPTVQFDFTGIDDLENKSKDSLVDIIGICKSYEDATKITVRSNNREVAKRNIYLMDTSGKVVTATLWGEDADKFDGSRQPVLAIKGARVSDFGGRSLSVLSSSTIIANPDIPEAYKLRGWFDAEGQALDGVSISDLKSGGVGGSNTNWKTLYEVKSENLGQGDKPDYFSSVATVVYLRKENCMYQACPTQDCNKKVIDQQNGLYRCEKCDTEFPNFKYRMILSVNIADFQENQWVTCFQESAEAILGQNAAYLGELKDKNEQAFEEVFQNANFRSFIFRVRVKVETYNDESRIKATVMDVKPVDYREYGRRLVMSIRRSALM
T1 sequence (P15927 whole entry, chain 2 of 3): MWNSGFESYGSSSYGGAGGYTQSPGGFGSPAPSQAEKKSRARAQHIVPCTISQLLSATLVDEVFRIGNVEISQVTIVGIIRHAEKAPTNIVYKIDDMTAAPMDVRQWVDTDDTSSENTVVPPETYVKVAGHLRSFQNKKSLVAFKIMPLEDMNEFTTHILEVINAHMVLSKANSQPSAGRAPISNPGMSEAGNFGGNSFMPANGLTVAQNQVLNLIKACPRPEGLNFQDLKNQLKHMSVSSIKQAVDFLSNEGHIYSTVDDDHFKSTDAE
T1 sequence (P35244 2-121 limits assumed, chain 3 of 3): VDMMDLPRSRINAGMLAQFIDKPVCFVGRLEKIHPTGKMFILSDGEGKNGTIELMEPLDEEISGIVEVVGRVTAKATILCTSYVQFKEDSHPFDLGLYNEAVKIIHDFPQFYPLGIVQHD

B1: ZNF827 mutant with no zinc fingers (ZnF1-9 deleted) (other)
chain: MPRRKQEQPKRLPSHVSRQEEAEGELSEGEHWYGNSSETPSEASYGEVQENYKLSLEDRIQEQSTSPDTSLGSTTPSSHTLELVALDSEVLRDSLQCQDHLSPGVSSLCDDDPGSNKPLSSNLRRLLEAGSLKLDAAATANGRVESPVNVGSNLSFSPPSHHAQQLSVLARKLAEKQEQNDQYTPSNRFIWNQGKWLPNSTTTCSLSPDSAILKLKAAANAVLQDKSLTRTEETMRFESFSSPFSSQSASSTLAALSKKVSERSLTPGQEHPPPASSFLSLASMTSSAALLKEVAARAAGSLLAEKSSLLPEDPLPPPPSEKKPEKVTPPPPPPPPPPPPPPPQSLELLLLPVPKGRVSKPSNSASEEESGKPQHFLRTEAKVKEEIPDPDVKGSPHLSDSACLGQQREGGGTELVGTMMTSNTPERTSQGGAGVSPLLVKEEPKEDNGLPTSFTLNAADRPATRTRPLEQKLISEEDLAANDILDYKDDDDKV
notes: also called ZnF1-9d mutant
[1]
  binding result: no binding
[2]
  binding result: no binding
